In the supplement of paper PMC5998384:

Experiments:
HeLa Kyoto [1] = experiment: solubility in G1/S (NP-40 vs SDS abundance) (log2 ratio); higher = more soluble; details: cell cycle stage: G1/S
HeLa Kyoto [2] = experiment: thermal stability score vs G1/S (z-score of summed log2 fold changes over temperatures); higher = more thermally stable than in G1/S
HeLa Kyoto [3] = experiment: solubility change mitosis vs G1/S (difference of NP-40 vs SDS log2 ratios) (log2 ratio difference); higher = more soluble in mitosis
HeLa Kyoto [4] = experiment: melting temperature (median over replicates), in situ; higher = more thermally stable
[5] = cell cycle stage: early G1 (4.5 h after nocodazole release)
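Wherever melting temperature (median over replicates), in situ is given: HeLa Kyoto cells synchronized by double thymidine or nocodazole block, proteins quantified by TMT10plex mass spectrometry, three independent biological replicates.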
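Wherever solubility change mitosis vs G1/S (difference of NP-40 vs SDS log2 ratios) is given: synchronized HeLa Kyoto cells (double thymidine block for G1/S, nocodazole release for mitosis), protein amounts in NP-40 versus SDS lysates quantified by mass spectrometry, three biological replicates.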
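Wherever solubility in G1/S (NP-40 vs SDS abundance) is given: HeLa Kyoto cells arrested at G1/S by double thymidine block, proteins quantified by TMT10plex mass spectrometry in mild NP-40 versus SDS extracts, three biological replicates.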
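Wherever thermal stability score vs G1/S (z-score of summed log2 fold changes over temperatures) is given: synchronized HeLa Kyoto cells, proteins quantified by TMT10plex mass spectrometry, three biological replicates, mitosis taken 0.5 h after nocodazole release, G1/S directly after double thymidine block.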

Sequence of BRD2 (chain, as listed by the source): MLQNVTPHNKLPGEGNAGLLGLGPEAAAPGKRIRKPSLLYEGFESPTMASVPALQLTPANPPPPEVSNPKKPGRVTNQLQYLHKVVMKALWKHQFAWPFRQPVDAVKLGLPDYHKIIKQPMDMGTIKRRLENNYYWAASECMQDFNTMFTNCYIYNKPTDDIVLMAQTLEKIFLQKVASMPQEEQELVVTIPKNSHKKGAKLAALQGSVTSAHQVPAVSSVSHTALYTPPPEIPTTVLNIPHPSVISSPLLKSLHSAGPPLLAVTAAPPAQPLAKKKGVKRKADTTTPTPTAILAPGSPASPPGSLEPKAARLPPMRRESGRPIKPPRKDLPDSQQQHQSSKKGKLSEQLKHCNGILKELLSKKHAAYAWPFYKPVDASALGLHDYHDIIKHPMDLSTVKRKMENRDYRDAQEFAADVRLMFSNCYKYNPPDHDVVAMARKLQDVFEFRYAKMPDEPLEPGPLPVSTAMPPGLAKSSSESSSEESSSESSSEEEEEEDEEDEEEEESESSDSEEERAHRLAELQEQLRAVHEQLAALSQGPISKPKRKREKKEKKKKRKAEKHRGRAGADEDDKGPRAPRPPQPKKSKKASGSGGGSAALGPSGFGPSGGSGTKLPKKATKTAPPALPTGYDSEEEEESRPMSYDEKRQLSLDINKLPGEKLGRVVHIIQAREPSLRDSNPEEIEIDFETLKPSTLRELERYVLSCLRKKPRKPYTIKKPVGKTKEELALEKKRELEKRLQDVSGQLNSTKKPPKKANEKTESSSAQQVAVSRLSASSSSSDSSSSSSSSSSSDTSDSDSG
Sequence of AGO2 (chain, as listed by the source): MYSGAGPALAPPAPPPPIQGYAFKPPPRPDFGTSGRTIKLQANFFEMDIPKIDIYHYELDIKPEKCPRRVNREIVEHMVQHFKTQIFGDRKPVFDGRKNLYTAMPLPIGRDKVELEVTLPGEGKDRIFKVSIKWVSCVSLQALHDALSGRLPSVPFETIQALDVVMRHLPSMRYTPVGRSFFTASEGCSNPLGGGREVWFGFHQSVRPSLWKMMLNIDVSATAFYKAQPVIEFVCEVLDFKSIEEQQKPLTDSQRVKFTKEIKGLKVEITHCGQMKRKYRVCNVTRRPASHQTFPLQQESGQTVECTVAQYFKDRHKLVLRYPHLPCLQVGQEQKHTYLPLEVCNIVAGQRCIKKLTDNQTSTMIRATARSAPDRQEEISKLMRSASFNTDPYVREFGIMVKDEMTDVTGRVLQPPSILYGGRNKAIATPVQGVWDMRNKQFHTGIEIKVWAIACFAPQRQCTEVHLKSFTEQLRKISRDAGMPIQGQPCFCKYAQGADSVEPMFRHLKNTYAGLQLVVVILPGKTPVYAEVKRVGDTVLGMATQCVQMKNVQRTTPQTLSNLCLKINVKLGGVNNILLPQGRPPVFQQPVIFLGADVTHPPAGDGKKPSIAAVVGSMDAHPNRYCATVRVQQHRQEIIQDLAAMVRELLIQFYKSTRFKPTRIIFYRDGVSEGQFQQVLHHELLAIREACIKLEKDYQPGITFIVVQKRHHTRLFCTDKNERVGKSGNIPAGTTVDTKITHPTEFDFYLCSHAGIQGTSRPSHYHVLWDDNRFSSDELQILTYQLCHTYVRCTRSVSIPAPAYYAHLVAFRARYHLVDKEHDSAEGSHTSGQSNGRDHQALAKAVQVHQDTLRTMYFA

Substance | solubility in G1/S (log2) (HeLa Kyoto [1]) | thermal stability score (HeLa Kyoto [2]; [5]) | thermal stability score (HeLa Kyoto [2]; cell cycle stage: mitosis) | solubility change mitosis (log2) (HeLa Kyoto [3]) | melting temperature (HeLa Kyoto [4]; cell cycle stage: G1/S) [°C] | melting temperature (HeLa Kyoto [4]; cell cycle stage: mitosis) [°C]
MPLVKRNIDPRHLCHTALPRGIKNELECVTNISLANIIRQLSSLSKYAEDIFGELFNEAHSFSFRVNSLQERVDRLSVSVTQLDPKEEELSLQDITMRKAFRSSTIQDQQLFDRKTLPIPLQETYDVCEQPPPLNILTPYRDDGKEGLKFYTNPSYFFDLWKEKMLQDTEDKRKEKRKQKQKNLDRPHEPEKVPRAPHDRRREWQKLAQGPELAEDDANLLHKHIEVANGPASHFETRPQTYVDHMDGSYSLSALPFSQMSELLTRAEERVLVRPHEPPPPPPMHGAGDAKPIPTCISSATGLIENRPQSPATGRTPVFVSPTPPPPPPPLPSALSTSSLRASMTSTPPPPVPPPPPPPATALQAPAVPPPPAPLQIAPGVLHPAPPPIAPPLVQPSPPVARAAPVCETVPVHPLPQGEVQGLPPPPPPPPLPPPGIRPSSPVTVTALAHPPSGLHPTPSTAPGPHVPLMPPSPPSQVIPASEPKRHPSTLPVISDARSVLLEAIRKGIQLRKVEEQREQEAKHERIENDVATILSRRIAVEYSDSEDDSEFDEVDWLE [WASF1] | 0.124 | -0.0852 | 0.459 | 0.025 | 51.5 | 52
MAAPEPLRPRLCRLVRGEQGYGFHLHGEKGRRGQFIRRVEPGSPAEAAALRAGDRLVEVNGVNVEGETHHQVVQRIKAVEGQTRLLVVDQETDEELRRRQLTCTEEMAQRGLPPAHDPWEPKPDWAHTGSHSSEAGKKDVSGPLRELRPRLCHLRKGPQGYGFNLHSDKSRPGQYIRSVDPGSPAARSGLRAQDRLIEVNGQNVEGLRHAEVVASIKAREDEARLLVVDPETDEHFKRLRVTPTEEHVEGPLPSPVTNGTSPAQLNGGSACSSRSDLPGSDKDTEDGSAWKQDPFQESGLHLSPTAAEAKEKARAMRVNKRAPQMDWNRKREIFSNF [SLC9A3R2] | 0.422 | -1.69 | -3.57 | -0.0543 | 53.6 | 54.2
MVTVGNYCEAEGPVGPAWMQDGLSPCFFFTLVPSTRMALGTLALVLALPCRRRERPAGADSLSWGAGPRISPYVLQLLLATLQAALPLAGLAGRVGTARGAPLPSYLLLASVLESLAGACGLWLLVVERSQARQRLAMGIWIKFRHSPGLLLLWTVAFAAENLALVSWNSPQWWWARADLGQQVQFSLWVLRYVVSGGLFVLGLWAPGLRPQSYTLQVHEEDQDVERSQVRSAAQQSTWRDFGRKLRLLSGYLWPRGSPALQLVVLICLGLMGLERALNVLVPIFYRNIVNLLTEKAPWNSLAWTVTSYVFLKFLQGGGTGSTGFVSNLRTFLWIRVQQFTSRRVELLIFSHLHELSLRWHLGRRTGEVLRIADRGTSSVTGLLSYLVFNVIPTLADIIIGIIYFSMFFNAWFGLIVFLCMSLYLTLTIVVTEWRTKFRRAMNTQENATRARAVDSLLNFETVKYYNAESYEVERYREAIIKYQGLEWKSSASLVLLNQTQNLVIGLGLLAGSLLCAYFVTEQKLQVGDYVLFGTYIIQLYMPLNWFGTYYRMIQTNFIDMENMFDLLKEETEVKDLPGAGPLRFQKGRIEFENVHFSYADGRETLQDVSFTVMPGQTLALVGPSGAGKSTILRLLFRFYDISSGCIRIDGQDISQVTQASLRSHIGVVPQDTVLFNDTIADNIRYGRVTAGNDEVEAAAQAAGIHDAIMAFPEGYRTQVGERGLKLSGGEKQRVAIARTILKAPGIILLDEATSALDTSNERAIQASLAKVCANRTTIVVAHRLSTVVNADQILVIKDGCIVERGRHEALLSRGGVYADMWQLQQGQEETSEDTKPQTMER [ABCB6] | -0.0102 | -1.04 | -3.83 | -0.128 | 54 | 53.4
MYTLLSGLYKYMFQKDEYCILILGLDNAGKTTFLEQSKTRFNKNYKGMSLSKITTTVGLNIGTVDVGKARLMFWDLGGQEELQSLWDKYYAECHGVIYVIDSTDEERLAESKQAFEKVVTSEALCGVPVLVLANKQDVETCLSIPDIKTAFSDCTSKIGRRDCLTQACSALTGKGVREGIEWMVKCVVRNVHRPPRQRDIT [ARFRP1] | 0.0143 | 0.162 | -0.992 | -0.0831 | – | 52.8
MVLLESEQFLTELTRLFQKCRTSGSVYITLKKYDGRTKPIPKKGTVEGFEPADNKCLLRATDGKKKISTVVSSKEVNKFQMAYSNLLRANMDGLKKRDKKNKTKKTKAAAAAAAAAPAAAATAPTTAATTAATAAQ [SRP14] | 0.1 | -2.96 | -4.66 | 0.409 | 53.6 | 52.6
TJP1 | -0.366 | -0.423 | 1.4 | 0.126 | 49.3 | 50.3
MAAGGDHGSPDSYRSPLASRYASPEMCFVFSDRYKFRTWRQLWLWLAEAEQTLGLPITDEQIQEMKSNLENIDFKMAAEEEKRLRHDVMAHVHTFGHCCPKAAGIIHLGATSCYVGDNTDLIILRNALDLLLPKLARVISRLADFAKERASLPTLGFTHFQPAQLTTVGKRCCLWIQDLCMDLQNLKRVRDDLRFRGVKGTTGTQASFLQLFEGDDHKVEQLDKMVTEKAGFKRAFIITGQTYTRKVDIEVLSVLASLGASVHKICTDIRLLANLKEMEEPFEKQQIGSSAMPYKRNPMRSERCCSLARHLMTLVMDPLQTASVQWFERTLDDSANRRICLAEAFLTADTILNTLQNISEGLVVYPKVIERRIRQELPFMATENIIMAMVKAGGSRQDCHEKIRVLSQQAASVVKQEGGDNDLIERIQVDAYFSPIHSQLDHLLDPSSFTGRASQQVQRFLEEEVYPLLKPYESVMKVKAELCL [ADSL] | 0.108 | -1.75 | -1.49 | -0.138 | 57.2 | 57.8
MGTARWLALGSLFALAGLLEGRLVGEEEAGFGECDKFFYAGTPPAGLAADSHVKICQRAEGAERFATLYSTRDRIPVYSAFRAPRPAPGGAEQRWLVEPQIDDPNSNLEEAINEAEAITSVNSLGSKQALNTDYLDSDYQRGQLYPFSLSSDVQVATFTLTNSAPMTQSFQERWYVNLHSLMDRALTPQCGSGEDLYILTGTVPSDYRVKDKVAVPEFVWLAACCAVPGGGWAMGFVKHTRDSDIIEDVMVKDLQKLLPFNPQLFQNNCGETEQDTEKMKKILEVVNQIQDEERMVQSQKSSSPLSSTRSKRSTLLPPEASEGSSSFLGKLMGFIATPFIKLFQLIYYLVVAILKNIVYFLWCVTKQVINGIESCLYRLGSATISYFMAIGEELVSIPWKVLKVVAKVIRALLRILCCLLKAICRVLSIPVRVLVDVATFPVYTMGAIPIVCKDIALGLGGTVSLLFDTAFGTLGGLFQVVFSVCKRIGYKVTFDNSGEL [ENDOD1] | -0.0976 | 1.24 | -2.33 | -0.0882 | 57.6 | 56.6
MLADLGLIGTIGEDDEVPVEPESDSGDEEEEGPIVLGRRQKALGKNRSADFNPDFVFTEKEGTYDGSWALADVMSQLKKKRAATTLDEKIEKVRKKRKTEDKEAKSGKLEKEKEAKEGSEPKEQEDLQENDEEGSEDEASETDYSSADENILTKADTLKVKDRKKKKKKGQEAGGFFEDASQYDENLSFQDMNLSRPLLKAITAMGFKQPTPIQKACIPVGLLGKDICACAATGTGKTAAFALPVLERLIYKPRQAPVTRVLVLVPTRELGIQVHSVTRQLAQFCNITTCLAVGGLDVKSQEAALRAAPDILIATPGRLIDHLHNCPSFHLSSIEVLILDEADRMLDEYFEEQMKEIIRMCSHHRQTMLFSATMTDEVKDLASVSLKNPVRIFVNSNTDVAPFLRQEFIRIRPNREGDREAIVAALLTRTFTDHVMLFTQTKKQAHRMHILLGLMGLQVGELHGNLSQTQRLEALRRFKDEQIDILVATDVAARGLDIEGVKTVINFTMPNTIKHYVHRVGRTARAGRAGRSVSLVGEDERKMLKEIVKAAKAPVKARILPQDVILKFRDKIEKMEKDVYAVLQLEAEEKEMQQSEAQINTAKRLLEKGKEAVVQEPERSWFQTKEERKKEKIAKALQEFDLALRGKKKRKKFMKDAKKKGEMTAEERSQFEILKAQMFAERLAKRNRRAKRARAMPEEEPVRGPAKKQKQGKKSVFDEELTNTSKKALKQYRAGPSFEERKQLGLPHQRRGGNFKSKSRYKRRK [DDX27] | -2.35 | 1.57 | 2.15 | 1.15 | 52.4 | 52.2
MAGVGAGPLRAMGRQALLLLALCATGAQGLYFHIGETEKRCFIEEIPDETMVIGNYRTQMWDKQKEVFLPSTPGLGMHVEVKDPDGKVVLSRQYGSEGRFTFTSHTPGDHQICLHSNSTRMALFAGGKLRVHLDIQVGEHANNYPEIAAKDKLTELQLRARQLLDQVEQIQKEQDYQRYREERFRLTSESTNQRVLWWSIAQTVILILTGIWQMRHLKSFFEAKKLV [TMED4] | 0.179 | 2.03 | 0.764 | -0.0477 | 56 | 56.4
BRD2 | -0.0635 | 0.901 | 2.29 | 0.202 | 47.9 | 49.1
AGO2 | -0.133 | 2.34 | -0.539 | 0.0495 | 51.5 | 52.6
NFIB | 0.238 | 1.24 | 1.07 | -0.032 | 54.2 | 53.9
